B1: c-MET927-LZ (c-MET 1-927, GGGGS linker, GCN4 leucine zipper), tags cleaved (receptor)
chain: not shown
notes: signal peptide in the construct; linker; written here as one chain; also called c-MET-LZ; c-MET I; source: HEK293F infected with baculovirus (pEZT-BM), secreted, purified (Ni resin, SEC); not shown: Tsi3, C-terminal, cleaved; His6, C-terminal, cleaved
B2: NK1 (human HGF amino acids 31-209) (ligand, UniProt P14210 31-209, looked up)
chain: GQRKRRNTIHEFKKSAKTTLIKIDPALKIKTKKVNTADQCANRCTRNKGLPFTCKAFVFDKARKQCLWFPFNSMSSGVKKEFGHEFDLYENKDYIRNCIIGKGRSYKGTVSITKSGIKCQPWSSMIPHEHSFLPSSYRGKDLQENYCRNPRGEEGGPWCFTSNPEVRYEVCDIPQCSEV
notes: human HGF amino acids 31-209 (N and K1 domains), after an HR3C site; source: E. coli Rosetta-gami 2 (DE3), purified (Ni Sepharose, SEC); not shown: DsBC, N-terminal, cleaved; His6, N-terminal, cleaved

Tests used:
[1] = biological target: B2; assay: cryo-EM structure; c-MET927-LZ mixed with NK1 and heparin (Tinzaparin sodium) 1:1:4, complex isolated by SEC in 20 mM Hepes pH 7.5, 100 mM NaCl; 2 mM fluorinated Fos-Choline-8 added before freezing; details: both partners purified
[2] = biological target: the molecule itself; assay: SEC; c-MET927 or c-MET927-LZ alone and mixed with HGF in vitro (Supplementary Fig. 1); whether heparin was added is not told
[3] = biological target: T1, full-length human hepatocyte growth factor (HGF), wild type (human, UniProt P14210 32-728); assay: as above; details: both partners purified
T1 construct: signal peptide in the construct; full-length human HGF followed by an HR3C site and a His6 tag; written here as one chain; also called HGF WT; HGF I; source: HEK293F infected with baculovirus (pEZT-BM), 5% FBS in the medium, secreted, purified (cation exchange, SEC)
T1 sequence (P14210 32-728): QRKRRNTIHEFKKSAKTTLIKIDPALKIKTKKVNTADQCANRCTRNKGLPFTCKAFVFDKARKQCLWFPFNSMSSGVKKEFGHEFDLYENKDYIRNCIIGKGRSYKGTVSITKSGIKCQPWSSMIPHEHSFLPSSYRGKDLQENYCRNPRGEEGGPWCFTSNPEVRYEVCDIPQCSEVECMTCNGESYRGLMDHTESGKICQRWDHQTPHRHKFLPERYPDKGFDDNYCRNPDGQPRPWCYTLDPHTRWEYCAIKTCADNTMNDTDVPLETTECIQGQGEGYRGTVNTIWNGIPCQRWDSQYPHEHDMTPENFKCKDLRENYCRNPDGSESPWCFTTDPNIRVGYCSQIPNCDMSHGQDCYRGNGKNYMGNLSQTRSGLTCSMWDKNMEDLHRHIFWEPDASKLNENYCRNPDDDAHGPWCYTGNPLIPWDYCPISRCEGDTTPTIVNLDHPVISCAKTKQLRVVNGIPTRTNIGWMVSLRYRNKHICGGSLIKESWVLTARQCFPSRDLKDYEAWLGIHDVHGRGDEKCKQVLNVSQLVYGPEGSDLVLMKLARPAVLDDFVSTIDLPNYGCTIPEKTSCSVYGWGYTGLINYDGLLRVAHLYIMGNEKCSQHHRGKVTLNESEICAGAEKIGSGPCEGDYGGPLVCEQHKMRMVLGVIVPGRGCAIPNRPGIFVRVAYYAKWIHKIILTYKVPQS

[4] = biological target: the molecule itself; assay: cryo-EM structure; c-MET927-LZ mixed with NK1 and heparin (Tinzaparin sodium) 1:1:4, complex isolated by SEC in 20 mM Hepes pH 7.5, 100 mM NaCl; 2 mM fluorinated Fos-Choline-8 added before freezing

Row | Binder | binding result [1] | stoichiometry N [2] | binding result [3] | stoichiometry N [4]
1 | B1 | binds | 2 | binds | –
2 | B2 | – | – | – | 2
